The results in this text go back to paper PMC4165446.

Common to all, as to experiment: other fluorescence titration
The target in experiment [1] is FIH-Gln239 → Asn variant (human).
For experiment [2], the target named is FIH-Gln239 → His variant (human).
Experiment [3] addresses FIH-Gln239 → Glu variant (human).
The target in experiment [4] is FIH-Gln239 → Ala variant (human).

One may read the Kd as the free concentration of one partner at which half of the binding sites on the other are occupied at equilibrium, for simple one-to-one binding. Take DESGLPQLTSYDAEVNAPIQGSRNLLQGEELLRALDQVN [39-mer CTAD peptide (C-terminal activation domain of human HIF1α, HIF1α 788–826, Cys800 → Ala)]: the equilibrium dissociation constant (Kd) in experiment [1] was 98 µM; in experiment [2] it was 64 µM; in experiment [3], 75 µM; in experiment [4] it was 100 µM.
